Measurements taken from patent publication CN113735974A (HANGZHOU BANGSHUN PHARMACEUTICAL CO LTD, dated 2021).
Each block holds one binder with its values, some of them ahead of it.

What was measured:
[1] = target: T1, 人Claudin18.1 (human Claudin18.1) (human, UniProt P56856 1-261); test: flow cytometry (FACS) on Claudin18.1-positive HEK293 cells, FITC goat anti-human IgG
T1 construct: whole, on cells; also called CLD18.1; 密蛋白18.1

[2] = target: T2, 人Claudin18.2蛋白 (human Claudin18.2) (human, UniProt P56856-2 1-261); test: flow cytometry (FACS) on Claudin18.2-positive HEK293 cells, 0.1-10 μg/mL, FITC goat anti-human IgG
T2 construct: whole, on cells; also called CLD18.2; 密蛋白18.2

binding result [1]: no binding (tested: 0.1-10 μg/mL tested)
binding result [2]: binds
B1: HDR002C04 (antibody, human IgG1, lambda, V domains shown)
VH: QVQLVQSGAEVKKPGASVKVSCKASGYTFTSYYMHWVRQAPGQGLEWMGIINPSGGSTSYAQKFQGRVTMTRDTSTSTVYMELSSLRSEDTAVYYCAKGSVDTAMVPGVDYWGQGTLVTVSS
VL: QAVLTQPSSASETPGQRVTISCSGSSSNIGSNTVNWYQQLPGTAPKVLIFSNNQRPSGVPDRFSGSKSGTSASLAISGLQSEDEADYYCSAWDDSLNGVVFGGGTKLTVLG
notes: also called 抗体HDR002C04; 抗Claudin18.2抗体

binding result [1]: no binding (tested: 0.1-10 μg/mL tested)
binding result [2]: binds
B2: HDR002C06 (antibody, human IgG1, kappa, V domains shown)
VH: QVQLQESGPGLVKPSQTLSLTCTVSGGSISSGGYYWSWIRQHPGKGLEWIGYIYYSGSTYYNPSLKSRVTISVDTSKNQFSLKLSSVTPDDTAKYYCARIVASVGGVDVWGQGTTVTVSS
VL: DIQLTQSPSSVSASVGDRVTITCRASQGISSWLAWYQQKPGKAPKLLIYAASSLQSGVPSRFSGSGSGTDFTLTISSLQPEDFATYYCQQANSFPLTFGGGTKVEIKR
notes: also called 抗体HDR002C06; 抗Claudin18.2抗体
